Measurements: patent publication US20240076386A1 (Pfizer, published 2024)
Numbering of substitutions follows the chain as printed. One block for each binder: values may come before it.

Experiments:
[1] = target: T1, human E-selectin, cell-surface expressed (human, UniProt P16581 22-610); assay: cell-based or functional assay
T1 sequence: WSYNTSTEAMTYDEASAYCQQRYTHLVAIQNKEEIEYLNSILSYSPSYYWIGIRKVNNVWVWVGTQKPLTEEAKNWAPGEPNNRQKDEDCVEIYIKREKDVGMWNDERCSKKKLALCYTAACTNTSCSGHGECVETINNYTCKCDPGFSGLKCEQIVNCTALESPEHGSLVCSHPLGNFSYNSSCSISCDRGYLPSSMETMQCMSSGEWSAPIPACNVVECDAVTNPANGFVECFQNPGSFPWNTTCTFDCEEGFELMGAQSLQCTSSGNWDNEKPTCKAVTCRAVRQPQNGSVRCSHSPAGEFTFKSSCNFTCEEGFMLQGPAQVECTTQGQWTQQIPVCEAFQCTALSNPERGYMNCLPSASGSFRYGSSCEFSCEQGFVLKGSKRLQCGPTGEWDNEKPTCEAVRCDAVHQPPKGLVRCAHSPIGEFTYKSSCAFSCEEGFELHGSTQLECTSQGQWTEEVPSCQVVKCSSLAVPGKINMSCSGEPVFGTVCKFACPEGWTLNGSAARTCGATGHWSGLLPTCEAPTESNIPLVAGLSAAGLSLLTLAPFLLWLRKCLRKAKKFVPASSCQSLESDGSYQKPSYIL

[2] = target: T1, human E-selectin, cell-surface expressed; assay: flow cytometry, CHO cells
Experimental: (§1) Cells were maintained in growth medium at 37° C., 5% CO₂ and 95% air in a humidified incubator. Methotrexate or Zeocin were removed from the medium prior to culture for experiments. CHO-E selectin cells were detached from T-150 flasks using citric saline (135 mM KCl, 15 mM sodium citrate) and immediately re-calcified with the addition of CaCl₂) to the detached cells to a final concentration of 1 mM. Growth media was immediately added to the detached cells, then centrifuged at 300×g for 5 minutes at room temperature to pellet the cells. Cells were plated into 96-well round-bottom plates in cold CHO buffer consisting of phosphate buffered saline (PBS), pH 7.4 containing bovine serum albumin (BSA; Sigma-Aldrich) at final concentration of 1%, calcium chloride at final concentration of 1 mM, and sodium azide at a final concentration of 0.1%, for 5 minutes on wet ice. After incubation, the cells were centrifuged at 300×g for 2 minutes at 4° C. to remove the buffer.
(§2) After incubation, the antibodies were removed and the cells were washed three times by centrifugation at 300×g for 1 minute at 4° C. and resuspended in cold CHO buffer. The washed cells were resuspended and incubated for 30 minutes on wet ice with 100 μL of 1:1000 dilution of APC-conjugated AffiniPure F(ab′)₂ Fragment Goat Anti-human IgG, Fcγ (Jackson Immunoresearch). The cells were washed three or four times prior to resuspension in CHO buffer for flow cytometric analysis. A Becton Dickinson LSRFortessa instrument using 640 nanometer laser line was used to acquire cell fluorescence data. Geometric mean fluorescence of cells was analyzed by FlowJo software package (FlowJo, LLC) and plotted against antibody concentration. The estimated EC₅₀ values were calculated using nonlinear regression analysis in the GraphPad Prism suite.

[3] = target: T2, cynomolgus monkey E-selectin, cell-surface expressed (cynomolgus monkey, UniProt P16581 22-610 (human entry)); assay: flow cytometry, CHO cells
T2 construct: also called CHO-cynomolgus monkey E-selectin cells; cynomolgus monkey CHO-E
T2 chain: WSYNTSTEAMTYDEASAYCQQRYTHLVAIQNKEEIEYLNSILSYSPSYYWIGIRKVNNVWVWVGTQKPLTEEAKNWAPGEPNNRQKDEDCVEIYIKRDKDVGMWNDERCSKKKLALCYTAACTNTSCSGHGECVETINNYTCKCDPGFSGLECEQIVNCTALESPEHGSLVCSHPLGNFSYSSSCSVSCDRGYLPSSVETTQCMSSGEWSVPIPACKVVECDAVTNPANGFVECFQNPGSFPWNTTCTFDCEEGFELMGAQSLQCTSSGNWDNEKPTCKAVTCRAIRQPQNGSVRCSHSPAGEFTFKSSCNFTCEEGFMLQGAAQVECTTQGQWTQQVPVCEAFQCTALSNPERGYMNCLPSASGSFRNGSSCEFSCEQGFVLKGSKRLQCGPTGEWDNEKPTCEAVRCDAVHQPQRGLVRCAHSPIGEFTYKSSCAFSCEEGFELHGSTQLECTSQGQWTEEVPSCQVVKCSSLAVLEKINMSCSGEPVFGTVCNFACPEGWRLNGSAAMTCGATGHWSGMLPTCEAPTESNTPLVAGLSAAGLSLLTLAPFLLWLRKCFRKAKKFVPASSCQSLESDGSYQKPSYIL
Experimental: as §1, §2

[4] = target: T1, human E-selectin, cell-surface expressed; assay: competition ELISA on CHO cells vs sialyl Lewis ligand-PAA-biotin/SA-HRP
Experimental: (§3) In a static ligand cellular adhesion assay, horse radish peroxidase (HRP) conjugated E-selectin ligand and E-selectin antibodies compete for binding to human or cynomolgus E-selectin expressed on Chinese hamster ovary (CHO) cells. The ability of anti-E-selectin antibodies to neutralize the ligand binding was assessed in a static neutralization assay using a competition enzyme-linked immunosorbent assay (ELISA) to evaluate the neutralization of the sialyl Lewis antigen to Chinese hamster ovary cells (CHO) engineered to express human or cynomolgus monkey E-selectin.
(§4) CHO cells expressing E-selectin were seeded at 12,500 cells per well into a 96 well tissue culture plate and incubated at 37° C., 5% CO₂ for 48 hours to form a confluent monolayer. Plates were subsequently washed twice with 200 μL of calcium magnesium free PBS. Anti-E-selectin antibodies, or an IgG1 isotype control, were added to the assay in the presence of a small synthetic conjugate of biotinylated, sialyl Lewis A polyacrylamide (Carbosynth LLC, OS45446) or sialyl Lewis X polyacrylamide (Glycotech, 01-045) with a streptavidin/horseradish peroxidase (100 μL total) and incubated at 37° C., 5% CO₂ for 2 hours. Plates were then washed twice with 200 μL of calcium magnesium free PBS. Following the incubation, the cells were washed twice with 200 μL of wash buffer containing 2 mM calcium chloride (50 mM TRIS [trisaminomethane], 150 mM sodium chloride; 0.05% polysorbate 20, pH 7.4; 2 mM of calcium chloride). Signal was developed by adding 100 μL of 1-Step Ultra TMB substrate (Thermo Scientific, 34028) and incubating for 30 minutes at room temperature. Reactions were stopped using 2 M of sulfuric acid and absorbance was read at 450 nm (Spectramax M5e). Data was analyzed and graphed using GraphPad Prism software (Version 8.0.2).

[5] = target: T2, cynomolgus monkey E-selectin, …; assay: as above
Experimental: as §3, §4

neutralization under physiological flow, HL-60 cell adhesion to CHO-human E-selectin cells IC50 (nM) [1]: 4.17 nM | EC50 [2]: 1.62 nM | EC50 [3]: 1.54 nM | IC50 [4]: 3.81 nM | IC50 [5]: 1.74 nM
B1: humanized anti-E-selectin antibody 0841 (antibody, human IgG1, kappa, V domains shown)
VH: EVQLVESGGGLVQPGGSLRLSCAASGYNIRSSYMHWVRQAPGKGLEWVARIDPANGNTIYAEKFKIRFTISADNAKNSAYLQMNSLRAEDTAVYYCAMDLYSTSEYWGQGTLVTVSS
VL: DIQMTQSPSSLSASVGDRVTITCKTSQNINRYLNWYQQKPGKAPKLLIYNANSLQTGVPSRFSGSGSGTDFTLTISSLQPEDFATYFCLQDNSWPLTFGQGTKVEIKR
notes: effector-null human IgG1, kappa

neutralization under physiological flow, HL-60 cell adhesion to CHO-human E-selectin cells IC50 (nM) [1]: 3.73 nM | EC50 [2]: 1.39 nM | EC50 [3]: 1.73 nM | IC50 [4]: 5.17 nM | IC50 [5]: 2 nM
B2: anti-E-selectin antibody 0164 chimera (antibody, human IgG1, kappa, V domains shown)
VH: EVQLQQSGAEFGKPGTSVKLSCKVSGYNIRSSYMHWVNQRPGKGLEWIGRIDPANGNTIYAEKFKIKAILTADSSSNTAYMQLSQLKSDDTAIYFCAMDLYSTSEYWGQGVMVTVSS
VL: B1 VL with S10F, T22N, P40L, K42E, V58I, G64A, S76N, F83V, Q100S, V104L
notes: rat VH/VL on effector-null human IgG1 and human kappa
